# In article PMC11211324 (Cell Discovery, 2024):
# Assays:
# purified KRAS [1] = molecular target: T1, purified KRAS (Homo sapiens (assumed), isoform 2B …, UniProt P01116-2, biotin (chemically labelled with EZ-link-Sulfo-NHS-biotin) in the BLI assay only)
# purified KRAS [2] = molecular target: T1, purified KRAS; test: BLI; biotinylated KRAS immobilised on streptavidin biosensors, KDCs (TKD, TKDm) in solution in a 2-fold dilution series; Octet Red96, 30 °C, PBST (1x PBS, 0.1% Tween 20); 100 s association, 200 s dissociation; 1:1 model, global fit; details: both partners purified
# purified HRAS = molecular target: T2, purified HRAS (Homo sapiens (assumed), UniProt P01112); test: BLI; TKD with purified HRAS or NRAS; Octet Red96, 30 °C, PBST; which partner was on the biosensor is not clearly told; details: both partners purified
# T2 construct: HRAS, purified, bought; Catalogue numbers are printed in the order HRAS/NRAS; source: bought: MedChemExpress
# purified NRAS = molecular target: T3, purified NRAS (Homo sapiens (assumed), UniProt P01111); test: as above; details: both partners purified
# T3 construct: NRAS, purified, bought; Catalogue numbers are printed in the order HRAS/NRAS; source: bought: MedChemExpress
# T3 sequence (P01111 whole entry): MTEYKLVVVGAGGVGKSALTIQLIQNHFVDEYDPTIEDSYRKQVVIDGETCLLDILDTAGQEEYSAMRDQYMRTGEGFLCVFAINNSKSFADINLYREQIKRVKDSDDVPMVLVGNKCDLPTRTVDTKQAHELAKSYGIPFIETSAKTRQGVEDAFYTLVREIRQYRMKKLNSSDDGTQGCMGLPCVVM
# T1 sequence (P01116 whole entry, canonical isoform): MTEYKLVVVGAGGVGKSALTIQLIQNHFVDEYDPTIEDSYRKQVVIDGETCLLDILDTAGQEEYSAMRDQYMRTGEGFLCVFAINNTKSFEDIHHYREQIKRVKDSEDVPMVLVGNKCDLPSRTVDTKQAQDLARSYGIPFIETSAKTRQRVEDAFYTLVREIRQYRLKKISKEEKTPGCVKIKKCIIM
# T2 sequence (P01112 whole entry): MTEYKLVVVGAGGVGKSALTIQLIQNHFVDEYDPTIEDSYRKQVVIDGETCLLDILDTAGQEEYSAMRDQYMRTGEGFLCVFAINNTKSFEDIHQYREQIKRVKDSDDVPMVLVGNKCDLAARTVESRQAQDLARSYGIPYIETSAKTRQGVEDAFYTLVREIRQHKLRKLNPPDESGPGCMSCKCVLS
Binder,binding result (purified KRAS [1]),also measured
2 (VHH) VHH: DVQLQESGGGLVQAGGSLRLSCVAPARTVSTYPTGWFRRAPGKEREFVARINFSGGITNYADSVKGRFTISRNNTKNTVYLQMNSLKPEDTAVYYCGGGSTTWADGIPINFDYWGQGTQVTVSS,binds,–
"tumor-targeting KRAS degrader (TKD) (VHH, cancer cell-penetrating peptide BR2 (derived from buforin IIb); KRAS nanobody from an alpaca immunised with KRAS (1-169 aa); Fusion of BR2, KRAS nanobody and CTM; also called KDC 1; KRAS degrader candidate 1; source: for co-IP the purified protein was added to living cells) VHH: DVQLQESGGGLVQAGGSLRLSCVASGRTFSTYPTGWFRQAPGKEREFVARINLSGGITNYADSVKGRFTISRDNAKNTVYLQMNSLKPEDTAVYYCGGGSTTWAGGIPTNFDYWGQGTQVTVSS",–,Kd (purified KRAS [2]): 6.57 nM; binding result (purified HRAS): no binding; binding result (purified NRAS): no binding
"TKDm (negative control of TKD with mutant CTM peptide) (VHH, cancer cell-penetrating peptide BR2 (derived from buforin IIb); KRAS nanobody, same as in TKD; also called TKDm-His; source: for co-IP the purified protein was added to living cells) VHH: DVQLQESGGGLVQAGGSLRLSCVASGRTFSTYPTGWFRQAPGKEREFVARINLSGGITNYADSVKGRFTISRDNAKNTVYLQMNSLKPEDTAVYYCGGGSTTWAGGIPTNFDYWGQGTQVTVSS",–,Kd (purified KRAS [2]): 6.6 nM
6 (VHH) VHH: DVQLQESGGGLVEPGGSLRLSCAASGSIFGLDVMGWYRQAPGKQRELVAIITRGGTANYADSGKGRFTISSDYAKKTVSLQMGSLIPEDTAVYYCSALVLGTNYWGQGTQVTVSS,binds,–
3 (VHH) VHH: DVQLQESGGGLVQPGGSLRLNCAASGFVFSDYAMSWVRQAPGKGLEWVSAIYGGGYNPIYTDSVKGRFTISRDNAKNTLYLQIRTLKPEDTGVYYCAKEQTFGTFLNDTYYSPSYYDWGQGTQVTVSS,binds,–
5 (VHH) VHH: DVQLQESGGGLVQPGGSLRLNCAASGFVFSDYAMSWVRQAPGKGLEWVSAIYGGGYNPIYADSVKGRFTISRDNAKNTLYLQIRTLKPEDTGVYYCAKEQTFGTFLNDTYYSPSYYDWGQGTQVTVSS,binds,–
4 (VHH) VHH: DVQLQESGGGLVQPGGSLRLSCAASGFTFGNTGMSWVRQAPGKGLEWVSGISSGGAFSFYADSVKGRFTGSDNSAKNTVYLQMNSLQPEDTGVYYCAAGPRVALLTTPWTNPQSYHYWGQGTQVTVSS,binds,–
